Data from patent US20140142103, “Methods and Compositions for Modulating Rad51 and Homologous Recombination” (The University of Chicago, published 2014).

Target: RecA (UniProt P0A7G6 P0A7G6:2-353)
Assay: FP; positive control; 10 mM Mg acetate, 2 mM ATP, 37 C
Conditions: tags: New England Biolabs; label: 5' fluorescein
Protocol: FIG. 2A, bottom: Purified RAD51 protein (wild type or mutant F86E) were serially diluted. RecA (New England Biolabs) was used as a positive control. Proteins were added to a 5′terminal fluorescein conjugated oligonucleotide (45 bases of dT) at a 1 μM nucleotide concentration. The mixture was incubated at 37° C. for 30 minutes in 384-well plates containing a reaction buffer (30 mM Tris/acetate pH 7.5, 10 mM Mg²⁺/acetate, 2 mM ATP, 0.1 mM DTT, 0.5 μM BSA). Fluorescence polarization was measured with a plate reader (filters: excitation=485 nm, emission=510 nm). FIG. 2B, top: Varying concentrations of 5′terminal fluorescein conjugated oligonucleotide were used to determine the threshold RAD51 concentration.
RAD51 filament formation can also be studied using oligonucleotides that are end-labeled with a fluorescent tag. Binding of proteins to this substrate DNA can be detected as an increase in anisotropy (or polarization) of the fluorescent tag. This method has been used to monitor the DNA-binding activity of yeast RAD51 (Kim et al., 2001) and RecA (Wittung et al., 1997; Ellouze et al., 1999), which is the […] homolog of RAD51. In this example, this method was modified so that very small sample volumes (30 μl) can be monitored in a high-throughput scale, using 384-well plates and a fluorescent plate reader. […]

Chain of RecA (P0A7G6 2-353, one chain of several): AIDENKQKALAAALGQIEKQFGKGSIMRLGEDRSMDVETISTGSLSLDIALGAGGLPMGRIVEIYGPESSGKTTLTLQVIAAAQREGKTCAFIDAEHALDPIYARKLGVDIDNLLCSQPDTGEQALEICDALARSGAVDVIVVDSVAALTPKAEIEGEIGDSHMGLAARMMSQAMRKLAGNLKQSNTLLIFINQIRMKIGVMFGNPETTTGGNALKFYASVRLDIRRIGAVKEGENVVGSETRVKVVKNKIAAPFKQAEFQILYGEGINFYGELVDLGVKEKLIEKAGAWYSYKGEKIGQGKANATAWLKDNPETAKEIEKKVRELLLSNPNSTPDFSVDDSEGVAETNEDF

TTTTTTTTTTTTTTTTTTTTTTTTTTTTTTTTTTTTTTTTTTTTT (ssDNA) [oligo dT45]: binds.
